Assay results taken from patent US20230127946A1 (SUZHOU PRO HEAL PHARMACEUTICALS TECHNOLOGY, published 2023).

B1: PHP1003-1 (antibody, human IgG1, kappa, L234A L235A, V domains shown)
VH: QVQLQESGPGLVKPSGTLSLTCAVSGGSISSSNWWSWVRQPPGKGLEWIGEIYHSGSTNYNPSLKSRVTISVDKSKNQFSLKLSSVTAADTAVYYCARWTGRTDAFDIWGQGTMVTVSS
VL: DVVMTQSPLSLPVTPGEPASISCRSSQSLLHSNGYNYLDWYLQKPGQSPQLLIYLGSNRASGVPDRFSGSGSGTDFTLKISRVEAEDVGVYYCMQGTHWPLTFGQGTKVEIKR
notes: Variable and constant regions are directly spliced; also called anti-IGF-1R antibody PHP1003-1
B2: PHP1003-5 (antibody, human IgG1, kappa, L234A L235A, V domains shown)
VH: EVQLLESGGGLVQPGGSLRLSCTASGFTFSSYAMNWVRQAPGKGLEWVSAISGSGGTTFYADSVKGRFTISRDNSRTTLYLQMNSLRAEDTAVYYCAKDLGWSDSYYYYYGMDVWGQGTTVTVSS
VL: DIQMTQFPSSLSASVGDRVTITCRASQGIRNDLGWYQQKPGKAPKRLIYAASRLHRGVPSRFSGSGSGTEFTLTISSLQPEDFATYYCLQHNSYPCSFGQGTKLEIKR
notes: Variable and constant regions are directly spliced
B3: PHP1003-2 (antibody, human IgG1, kappa, L234A L235A, V domains shown)
VH: EVQLVQSGGGLVKPGGSLRLSCAASGFTFSSFAMHWVRQAPGKGLEWISVIDTRGATYYADSVKGRFTISRDNAKNSLYLQMNSLRAEDTAVYYCARLGNFYYGMDVWGQGTTVTVSS
VL: EIVLTQSPGTLSVSPGERATLSCRASQSIGSSLHWYQQKPGQAPRLLIKYASQSLSGIPDRFSGSGSGTDFTLTISRLEPEDFAVYYCHQSSRLPHTFGQGTKVEIKR
notes: as for B2
B4: PHP1003-4 (antibody, human IgG1, kappa, L234A L235A, V domains shown)
VH: EVQLVQSGAEVKKPGSSVKVSCKASGGTFSSYAISWVRQAPGQGLEWMGGIIPIFGTANYAQKFQGRVTITADKSTSTAYMELSSLRSEDTAVYYCARAPLRFLEWSTQDHYYYYYMDVWGKGTTVTVSS
VL: SSELTQDPAVSVALGQTVRITCQGDSLRSYYATWYQQKPGQAPILVIYGENKRPSGIPDRFSGSSSGNTASLTITGAQAEDEADYYCKSRDGSGQHLVFGGGTKLTVLR
notes: as for B2
B5: PHP1003-7 (antibody, human IgG1, kappa, L234A L235A, V domains shown)
VH: QVQLQESGPGLVKPSETLSLTCTVSGYSITGGYLWNWIRQPPGKGLEWIGYISYDGTNNYKPSLKDRVTISRDTSKNQFSLKLSSVTAADTAVYYCARYGRVFFDYWGQGTLVTVSS
VL: DIVMTQSPLSLPVTPGEPASISCRSSQSIVHSNGNTYLQWYLQKPGQSPQLLIYKVSNRLYGVPDRFSGSGSGTDFTLKISRVEAEDVGVYYCFQGSHVPWTFGQGTKVEIKR
notes: as for B2
B6: PHP1003-6 (antibody, human IgG1, kappa, L234A L235A, V domains shown)
VH: QVQLQESGGGVVQPGRSLRLSCSASGFTFSDYYMYWVRQAPGKGLEWVAYITNYGGSTYYPDTVKGRFTISRDNAKNTLFLQMDSLRPEDTGVYFCARQSNYDYDGWFAYWGQGTPVTVSS
VL: DIQLTQSPSSLSASVGDRVTITCKASQEVGTAVAWYQQKPGKAPKLLIYWASTRHTGVPSRFSGSGSGTDFTFTISSLQPEDIATYFCQQYSNYPLTFGQGTKVEIKR
notes: as for B2

biological target: IGF-1R on MCF-7 cells (UniProt P08069 31-1367, limits assumed); assay: cell-based or functional assay
Sequence (P08069 31-1367 limits assumed): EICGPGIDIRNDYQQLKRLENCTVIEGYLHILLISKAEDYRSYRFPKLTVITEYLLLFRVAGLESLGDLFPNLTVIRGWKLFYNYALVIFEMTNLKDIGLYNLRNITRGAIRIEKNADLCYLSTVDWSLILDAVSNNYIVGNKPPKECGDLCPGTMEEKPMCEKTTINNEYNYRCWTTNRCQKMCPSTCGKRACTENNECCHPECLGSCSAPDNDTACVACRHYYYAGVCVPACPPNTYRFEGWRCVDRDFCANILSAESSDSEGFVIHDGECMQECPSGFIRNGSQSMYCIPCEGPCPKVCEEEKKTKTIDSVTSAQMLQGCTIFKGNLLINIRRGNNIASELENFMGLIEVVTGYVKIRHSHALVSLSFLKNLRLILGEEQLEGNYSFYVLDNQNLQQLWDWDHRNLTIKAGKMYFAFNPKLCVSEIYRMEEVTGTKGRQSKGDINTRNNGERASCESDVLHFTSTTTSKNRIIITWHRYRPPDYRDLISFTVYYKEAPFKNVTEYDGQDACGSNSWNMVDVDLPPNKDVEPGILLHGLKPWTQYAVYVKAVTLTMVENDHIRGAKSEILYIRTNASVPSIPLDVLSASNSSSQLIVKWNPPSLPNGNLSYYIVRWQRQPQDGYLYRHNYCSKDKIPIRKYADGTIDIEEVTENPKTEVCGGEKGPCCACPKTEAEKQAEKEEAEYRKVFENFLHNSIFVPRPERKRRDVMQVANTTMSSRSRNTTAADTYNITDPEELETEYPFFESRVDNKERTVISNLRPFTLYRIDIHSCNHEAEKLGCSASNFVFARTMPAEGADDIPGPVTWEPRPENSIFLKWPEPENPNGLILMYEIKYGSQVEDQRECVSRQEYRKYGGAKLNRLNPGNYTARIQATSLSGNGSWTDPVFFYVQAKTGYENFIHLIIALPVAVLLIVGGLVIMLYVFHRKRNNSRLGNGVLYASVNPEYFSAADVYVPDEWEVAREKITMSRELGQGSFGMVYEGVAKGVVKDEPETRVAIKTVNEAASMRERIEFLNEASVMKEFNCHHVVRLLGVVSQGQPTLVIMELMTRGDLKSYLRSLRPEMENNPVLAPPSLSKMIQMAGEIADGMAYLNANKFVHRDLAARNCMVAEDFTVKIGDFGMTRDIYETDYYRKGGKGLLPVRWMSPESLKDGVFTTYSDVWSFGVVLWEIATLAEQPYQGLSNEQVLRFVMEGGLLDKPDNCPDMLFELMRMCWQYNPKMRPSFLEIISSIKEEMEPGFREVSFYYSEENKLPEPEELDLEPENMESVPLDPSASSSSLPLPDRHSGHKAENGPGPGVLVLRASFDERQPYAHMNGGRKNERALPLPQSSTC

IC50 of inhibition of MCF-7 cell proliferation (CCK8, OD450) [µg/mL]	Binder
2.37	B1
0.96	B2
3.93	B3
4.05	B4
2.14	B5
3.81	B6

biological target: T1, Human IGF-1R protein (human, UniProt P08069 31-932); assay: BLI (Octet RED96), antibody captured on AHC biosensor, IGF-1R in solution, 1:1 model
T1 construct: Bought protein; also called human IGF-1R (ARCO, No. IGR-H5229)
From the text: After 14 days of culture, the culture supernatant was collected by centrifugation, and purify the antibodies with affinity purification column. Octet RED96 protein interaction workstation was used to detect the affinity of the above purified antibodies with human IGF-1R (Human IGF-1R, ARCO, No. IGR-H5229) separately. Biosensor AHC (18-5060) was used to capture the samples, and then the captured samples were compared with human IGF-1R. The dynamics of binding and dissociation of […] were detected. Dynamics uses 1:1 combined model for fitting analysis. The brief action steps are: protein loading for 200 s, binding for 180 s, dissociation for 300 s, regeneration for 30 s.

T1 sequence (P08069 31-932 limits assumed): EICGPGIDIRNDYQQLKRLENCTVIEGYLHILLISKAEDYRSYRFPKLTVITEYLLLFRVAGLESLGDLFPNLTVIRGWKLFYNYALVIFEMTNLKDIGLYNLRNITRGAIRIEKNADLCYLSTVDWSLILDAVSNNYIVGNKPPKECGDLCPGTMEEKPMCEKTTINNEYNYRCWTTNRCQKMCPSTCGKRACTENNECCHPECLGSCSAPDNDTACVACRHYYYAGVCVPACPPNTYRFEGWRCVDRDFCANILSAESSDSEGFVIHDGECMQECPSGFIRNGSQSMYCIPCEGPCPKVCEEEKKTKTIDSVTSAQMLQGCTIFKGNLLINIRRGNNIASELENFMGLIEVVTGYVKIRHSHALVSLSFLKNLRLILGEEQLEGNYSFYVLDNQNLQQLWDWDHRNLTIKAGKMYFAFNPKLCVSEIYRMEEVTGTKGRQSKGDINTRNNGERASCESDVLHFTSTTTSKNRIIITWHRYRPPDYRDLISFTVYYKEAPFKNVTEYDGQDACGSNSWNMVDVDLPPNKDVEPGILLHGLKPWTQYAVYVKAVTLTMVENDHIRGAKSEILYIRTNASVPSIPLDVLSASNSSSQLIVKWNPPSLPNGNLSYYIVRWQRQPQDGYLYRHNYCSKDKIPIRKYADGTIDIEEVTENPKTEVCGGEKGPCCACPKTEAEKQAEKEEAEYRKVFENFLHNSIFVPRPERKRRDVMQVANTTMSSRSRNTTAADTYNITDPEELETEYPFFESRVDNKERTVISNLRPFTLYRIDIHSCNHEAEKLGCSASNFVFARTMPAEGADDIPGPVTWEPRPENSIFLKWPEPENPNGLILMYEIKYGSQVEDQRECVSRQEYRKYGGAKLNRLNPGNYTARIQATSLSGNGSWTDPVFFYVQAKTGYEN

Kd [nM]	koff [s⁻¹]	kon [M⁻¹ s⁻¹]	Binder
1.27	0.000347	274000	B1
0.701	0.000396	565000	B2
3.83	0.000874	228000	B3
5.91	0.00146	247000	B4
8.98	0.000883	98300	B5
1.12	0.000472	422000	B6
